# The RNAGym collection of RNA variant scans (doi:10.1021/acssynbio.7b00057)
# B1: Pistol ribozyme (parent)
# chain: GGGUCGUUGUUCCAUAAUCGCGUGGAUAUGGCACGCAAGUUUCUACCGGGCACCGUAAAUGUCCGACUGGAGCCGUUCGGGCGGCUAUAAACAGACCUCAGGCCCGAAGCGUGGCGGCACCUGCCGCCGGUGGUAAAAAAGAUCGGAAGAGCACACGUCU
# Variants of: B1
# Assay: aptazyme ON/OFF ratio, guanine; higher = stronger switching; co-transcriptional cleavage with and without guanine
row,Variant,aptazyme ON/OFF ratio
1,U7C U8C G9C U10C U11C,1.14
2,U7C U8C G9C U10C U11A,1.4
3,U7C U8C G9C U10G U11C C12A C13U,1.09
4,U7C U8C G9C U10G U11C C12A C13A,1.13
5,U7C U8C G9C U10G U11C C12A C13G,1.17
6,U7C U8C G9U U10C C12A,1.29
7,U7C U8C G9U U10C C12U,1.32
8,U7C U8C G9U U10C C12G,1.22
9,U7C U8C G9U C13G,1.03
10,U7C U8C G9U C13U,1.23
11,U7C U8C G9U C13A,1.02
12,U7C U8C G9U U10C U11G C13A,1.07
13,U7C U8C G9U U10C U11G C13U,1.29
14,U7C U8C G9U U10C U11G C13G,1.3
15,U7C U8C G9U,2.34
16,U7C U8C G9C U11G C12U,1.12
17,U7C U8C G9C U11G C12A,1.22
18,U7C U8C G9C U11G C12G,1.11
19,U7C U8C G9C U10G U11C C12U,1.19
20,U7C U8C G9C U10G U11C C12A,1.09
21,U7C U8C G9C U10G U11C C12G,1.14

row,Variant,aptazyme ON/OFF ratio
1,U7C U8C G9C U11C,1.43
2,U7C U8C G9C U11A,1.71
3,U7C U8C G9C U11G,1.24
4,U7C U8C G9C U10C U11G C12U C13U,1.1
5,U7C U8C G9C U10C U11G C12U C13G,1.1
6,U7C U8C G9C U10C U11G C12U C13A,1.09
7,U7C U8C G9C U10C U11A C12A,1.12
8,U7C U8C G9C U10C U11A C12G,1.11
9,U7C U8C G9C U10C U11A C12U,1.02
10,U7C U8C G9C U10C U11C C13A,1.06
11,U7C U8C G9C U10C U11C C13G,1.12
12,U7C U8C G9C U10C U11C C13U,0.989
13,U7C U8C G9C U10G U11A C12A,1.16
14,U7C U8C G9C U10G U11A C12G,1.11
15,U7C U8C G9C U10G U11A C12U,1.15
16,U7C U8C G9C U10C U11C C12G C13G,1.19
17,U7C U8C G9C U10C U11C C12G C13U,1.1
18,U7C U8C G9C U10C U11C C12G C13A,1.28
19,U7C U8C G9C U10G U11G C12A C13G,1.07
20,U7C U8C G9C U10G U11G C12A C13A,1.08
21,U7C U8C G9C U10G U11G C12A C13U,1.09

row,Variant,aptazyme ON/OFF ratio
1,U7C U8C G9U U10G U11A C12A C13U,1.17
2,U7C U8C G9U U10G U11A C12A C13A,1.2
3,U7C U8C G9U U10G U11A C12A C13G,1.08
4,U7C U8C G9C U10C U11G C12A C13U,1.09
5,U7C U8C G9C U10C U11G C12A C13A,1.08
6,U7C U8C G9C U10C U11G C12A C13G,1.04
7,U7C U8C G9C U10G U11G,1.09
8,U7C U8C G9C U10G U11C,1.5
9,U7C U8C G9C U10G U11A,1.3
10,U7C U8C G9C U10G U11G C12U C13U,1.06
11,U7C U8C G9C U10G U11G C12U C13G,1.09
12,U7C U8C G9C U10G U11G C12U C13A,1.08
13,U7C U8C G9U U10A C12U C13G,1.14
14,U7C U8C G9U U10A C12U C13U,1.19
15,U7C U8C G9U U10A C12U C13A,1.07
16,U7C U8C G9U C12G C13U,1.17
17,U7C U8C G9U C12G C13A,1.21
18,U7C U8C G9U C12G C13G,1.12
19,U7C U8C G9C U10G C12A C13A,1.1
20,U7C U8C G9C U10G C12A C13G,1.06
21,U7C U8C G9C U10G C12A C13U,1.1

row,Variant,aptazyme ON/OFF ratio
1,U7C U8C G9U U10C U11G C12U,1.22
2,U7C U8C G9U U10C U11G C12A,1.16
3,U7C U8C G9U U10C U11G C12G,1.16
4,U7C U8C G9C U11G C12G C13U,1.1
5,U7C U8C G9C U11G C12G C13G,1.11
6,U7C U8C G9C U11G C12G C13A,1.1
7,U7C U8C G9U C12A C13G,1.1
8,U7C U8C G9U C12A C13A,1.05
9,U7C U8C G9U C12A C13U,1.22
10,U7C U8C G9U U10A U11A C12G C13G,1.19
11,U7C U8C G9U U10A U11A C12G C13U,1.11
12,U7C U8C G9U U10A U11A C12G C13A,1.03
13,U7C U8C G9U U10G C12A C13U,1.1
14,U7C U8C G9U U10G C12A C13A,1.06
15,U7C U8C G9U U10G C12A C13G,1.1
16,U7C U8C G9U U10G C12G C13A,1.09
17,U7C U8C G9U U10G C12G C13U,1.09
18,U7C U8C G9U U10G C12G C13G,1.07
19,U7C U8C G9C U10G U11A C12A C13A,1.16
20,U7C U8C G9C U10G U11A C12A C13G,1.11
21,U7C U8C G9C U10G U11A C12A C13U,1.11
